4 molecules from US20250327097A1, “ORGANISMS PRODUCING LESS CROTONIC ACID” (Global Bioenergies, priority 2021, published 2025) can be followed below.

B1: I283T-P284D-i284aP-N287P-S322T-N388M-C430N-L432F-L434W-S436N-dG462 (protein)
chain: MFLKSLREQINLLKRQGDLRIINRPVDSYLEAAAIIRRSTETKAPVPLMTNIKGYPGCSIVGGLAALSSNPEYPLSRVAMSLGLSTTASAQSIVQYLIDGLKKTPYLPVEIDSNSAPCKQNILRGEDASLAHFPIPQVHQHDGNRYVNTWGVFIVESPDGQWCNWSIQRVQYLNDRQMIALVFPSQHISDIWEEWVKIGKPMPYALVQGCEPIVPYIAGLPLLERNVNEAEYIGALYGKGIEVVKCETHDLRVPASSEVVIEGYFAITREGVEGPFGEFAGYTDNEPSLQPILSITAISWQDDPIWPVVAEGKPVDEYHTCTGIGDAAAIQNVLLTANLPVSFVWVPLYSACHLMIVSINRHWRQTHPDLTSEQLTKKVGDVIHQTRMSIKLPKIVVLDDDVDPADTESLLWALATRIHPERKRYFYESNIFPWLNCYSEEERHNRKGKRVIIDALLPENHGAISSFDYAYPDDIKQRVLMHWETDFSHD
B2: I283T-P284D-N285M-N287T-S322T-N388M-K394R-C430A-L432F-L434W-S436N-C437M-G462P-A463P (protein)
chain: MFLKSLREQINLLKRQGDLRIINRPVDSYLEAAAIIRRSTETKAPVPLMTNIKGYPGCSIVGGLAALSSNPEYPLSRVAMSLGLSTTASAQSIVQYLIDGLKKTPYLPVEIDSNSAPCKQNILRGEDASLAHFPIPQVHQHDGNRYVNTWGVFIVESPDGQWCNWSIQRVQYLNDRQMIALVFPSQHISDIWEEWVKIGKPMPYALVQGCEPIVPYIAGLPLLERNVNEAEYIGALYGKGIEVVKCETHDLRVPASSEVVIEGYFAITREGVEGPFGEFAGYTDMETSLQPILSITAISWQDDPIWPVVAEGKPVDEYHTCTGIGDAAAIQNVLLTANLPVSFVWVPLYSACHLMIVSINRHWRQTHPDLTSEQLTKKVGDVIHQTRMSIKLPRIVVLDDDVDPADTESLLWALATRIHPERKRYFYESAIFPWLNMYSEEERHNRKGKRVIIDALLPENHPPISSFDYAYPDDIKQRVLMHWETDFSHD
B3: I283T-P284D-N285M-N287T-S322T-N388M-K394R-C430A-L432F-L434W-S436N-G462P-A463P-I464P (protein)
chain: MFLKSLREQINLLKRQGDLRIINRPVDSYLEAAAIIRRSTETKAPVPLMTNIKGYPGCSIVGGLAALSSNPEYPLSRVAMSLGLSTTASAQSIVQYLIDGLKKTPYLPVEIDSNSAPCKQNILRGEDASLAHFPIPQVHQHDGNRYVNTWGVFIVESPDGQWCNWSIQRVQYLNDRQMIALVFPSQHISDIWEEWVKIGKPMPYALVQGCEPIVPYIAGLPLLERNVNEAEYIGALYGKGIEVVKCETHDLRVPASSEVVIEGYFAITREGVEGPFGEFAGYTDMETSLQPILSITAISWQDDPIWPVVAEGKPVDEYHTCTGIGDAAAIQNVLLTANLPVSFVWVPLYSACHLMIVSINRHWRQTHPDLTSEQLTKKVGDVIHQTRMSIKLPRIVVLDDDVDPADTESLLWALATRIHPERKRYFYESAIFPWLNCYSEEERHNRKGKRVIIDALLPENHPPPSSFDYAYPDDIKQRVLMHWETDFSHD
B4: I283T-P284D-N285M-N287T-L289H-S322T-N388M-K394R-C430A-L432F-L434W-S436N-G462P-A463P (protein)
chain: MFLKSLREQINLLKRQGDLRIINRPVDSYLEAAAIIRRSTETKAPVPLMTNIKGYPGCSIVGGLAALSSNPEYPLSRVAMSLGLSTTASAQSIVQYLIDGLKKTPYLPVEIDSNSAPCKQNILRGEDASLAHFPIPQVHQHDGNRYVNTWGVFIVESPDGQWCNWSIQRVQYLNDRQMIALVFPSQHISDIWEEWVKIGKPMPYALVQGCEPIVPYIAGLPLLERNVNEAEYIGALYGKGIEVVKCETHDLRVPASSEVVIEGYFAITREGVEGPFGEFAGYTDMETSHQPILSITAISWQDDPIWPVVAEGKPVDEYHTCTGIGDAAAIQNVLLTANLPVSFVWVPLYSACHLMIVSINRHWRQTHPDLTSEQLTKKVGDVIHQTRMSIKLPRIVVLDDDVDPADTESLLWALATRIHPERKRYFYESAIFPWLNCYSEEERHNRKGKRVIIDALLPENHPPISSFDYAYPDDIKQRVLMHWETDFSHD

This test deals with 3-methylcrotonic acid. Format: biochemical, Yersinia frederiksenii. Details: key: “+” representing a low increase in activity; “++++” representing a high increase in activity.
With B1, the “Activity relative to WT” value is reported as “++++”. For the molecule B2, the “Activity relative to WT” value is “++++”. Consider B3, for which the “Activity relative to WT” value was “++++”.

In the case of B4, the “Activity relative to WT” value is “++++”.
